How the values were obtained:
[1] = biological target: plasma membrane bound human c-Kit expressed by human tumor cells (Mo7e; also Malm-3M) (human, UniProt P10721 26-976); assay: cell-based or functional assay
[2] = biological target: T1, plasma membrane bound mouse (p815) c-Kit expressed by mouse tumor cells (p815) (mouse, UniProt P05532 25-979); assay: flow cytometry on whole live P815 cells
T1 construct: whole, on cells; also called c-Kit on P815 cells
Procedure: Species specificity of c-Kit mAbs can be further tested for their binding to plasma membrane bound c-Kit expressed on the surface of human Mo7e and mouse P815 cells based on the flow cytometry analysis (see, e.g., WO2004/007735). Briefly, whole, live human Mo7e and mouse P815 cells are serum starved overnight, washed 3 times in cold blocking buffer (5% FBS in PBS), and then resuspended in 100 μl of blocking buffer. An anti-c-Kit antibody is added at 1.0 μg/ml and the mixture is incubated for 30 minutes at 4° C. A secondary fluorescence-conjugated antibody (Jackson ImmunoResearch) is added at 1.0 μg/ml to detect human antibody bound to the cell surface via flow cytometry analysis.

[3] = biological target: T2, recombinant mouse c-Kit (rm-c-Kit; Gln26-Thr519) (R&D Systems) (mouse, UniProt P05532 26-519); assay: ELISA, plate coated with rm-c-Kit 1 ug/ml
T2 construct: also called mouse c-Kit (1.0 ug/ml)
T2 sequence (looked up): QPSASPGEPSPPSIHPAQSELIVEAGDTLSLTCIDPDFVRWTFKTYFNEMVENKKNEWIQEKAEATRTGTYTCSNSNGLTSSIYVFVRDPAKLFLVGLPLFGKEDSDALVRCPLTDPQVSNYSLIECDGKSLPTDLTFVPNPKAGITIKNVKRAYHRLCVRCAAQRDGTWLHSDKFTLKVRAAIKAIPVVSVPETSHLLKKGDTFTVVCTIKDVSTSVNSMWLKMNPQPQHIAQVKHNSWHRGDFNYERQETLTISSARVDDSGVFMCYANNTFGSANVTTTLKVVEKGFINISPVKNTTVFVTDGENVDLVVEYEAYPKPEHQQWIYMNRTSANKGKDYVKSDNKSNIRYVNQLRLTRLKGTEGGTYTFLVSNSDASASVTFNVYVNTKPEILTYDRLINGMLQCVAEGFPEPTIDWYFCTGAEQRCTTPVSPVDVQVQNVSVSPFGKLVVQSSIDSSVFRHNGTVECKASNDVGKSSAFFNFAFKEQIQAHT
Procedure: (§1) The species binding specificity of anti-human c-Kit mAbs can be determined by measuring the reactivity of the antibodies to human, cynomolgus, and mouse c-Kit proteins in an ELISA. […] Following washes, wells are blocked with 3% PBS/milk. Serial dilutions of human anti-human-c-Kit mAbs are then added to the c-Kit-coated wells and allowed to incubate for two hours at room temperature. Following several washes, a 1:1000 dilution of anti-human IgG-HRP conjugated antibody is added to the plates for one hour at room temperature in order to detect bound human antibody. Plates are washed and HRP substrate is added to each well and incubated until blue color is developed. Stop solution is added and absorbance is measured at 450 nm.

[4] = biological target: T3, cynomolgus c-Kit (cyno-c-Kit; Met1-His549 prepared recombinantly) (cynomolgus); assay: ELISA, plate coated with cyno-c-Kit 1 ug/ml
T3 construct: The printed range starts at Met1, so it includes the signal peptide of the expressed construct; also called cynomologus c-Kit; cynomolgus c-Kit (1.0 ug/ml)
Procedure: as §1

[5] = biological target: T4, recombinant human c-Kit (rh-c-Kit) protein (R&D Systems) (human, UniProt P10721 26-520, limits assumed); assay: SPR (BIAcore), rh-c-kit immobilized on CM5 chip, 25 C
T4 construct: also called human c-Kit protein; human c-Kit (1.0 ug/ml)

[6] = biological target: T4, recombinant human c-Kit (rh-c-Kit) …; assay: ELISA, plate coated with rh-c-Kit 1 ug/ml, anti-human IgG-HRP detection
Procedure: Following washes, wells are blocked with 3% PBS/milk. […] Plates are washed and HRP substrate is added to each well and incubated until blue color is developed. Stop solution is added and absorbance is measured at 450 nm.

[7] = biological target: T4, recombinant human c-Kit (rh-c-Kit) …; assay: blocking ELISA: CK6 pre-incubated with rh-c-Kit, added to SCF-coated wells
Procedure: Purified mAbs can be also tested for their ability to block the binding of c-Kit and its ligand. […] Following washes, wells are blocked with 3% PBS/milk. […] Following several washes (3-5), a 1:1000 dilution of anti-human IgG-HRP conjugated antibody is added to the plates for one hour at room temperature. Plates are washed in 0.2% Tween-PBS and HRP substrate is added to each well and incubated until blue color is developed. Stop solution is added and absorbance is measured at 450 nm.

T4 sequence (P10721 26-520 limits assumed): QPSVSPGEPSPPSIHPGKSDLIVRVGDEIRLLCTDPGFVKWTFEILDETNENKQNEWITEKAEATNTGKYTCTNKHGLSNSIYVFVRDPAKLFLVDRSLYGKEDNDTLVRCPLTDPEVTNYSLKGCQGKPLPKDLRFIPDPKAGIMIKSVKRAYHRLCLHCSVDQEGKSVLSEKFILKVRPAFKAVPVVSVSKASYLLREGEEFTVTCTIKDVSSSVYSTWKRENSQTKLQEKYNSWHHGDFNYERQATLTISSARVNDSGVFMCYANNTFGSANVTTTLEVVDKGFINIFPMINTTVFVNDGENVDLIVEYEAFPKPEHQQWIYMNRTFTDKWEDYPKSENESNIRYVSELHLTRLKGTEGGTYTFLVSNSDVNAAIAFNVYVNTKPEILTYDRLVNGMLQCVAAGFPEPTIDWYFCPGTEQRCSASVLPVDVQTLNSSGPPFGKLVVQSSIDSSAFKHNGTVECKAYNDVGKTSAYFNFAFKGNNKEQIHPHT
Chain of plasma membrane bound human c-Kit expressed by human tumor cells (Mo7e; also Malm-3M) (P10721 26-976): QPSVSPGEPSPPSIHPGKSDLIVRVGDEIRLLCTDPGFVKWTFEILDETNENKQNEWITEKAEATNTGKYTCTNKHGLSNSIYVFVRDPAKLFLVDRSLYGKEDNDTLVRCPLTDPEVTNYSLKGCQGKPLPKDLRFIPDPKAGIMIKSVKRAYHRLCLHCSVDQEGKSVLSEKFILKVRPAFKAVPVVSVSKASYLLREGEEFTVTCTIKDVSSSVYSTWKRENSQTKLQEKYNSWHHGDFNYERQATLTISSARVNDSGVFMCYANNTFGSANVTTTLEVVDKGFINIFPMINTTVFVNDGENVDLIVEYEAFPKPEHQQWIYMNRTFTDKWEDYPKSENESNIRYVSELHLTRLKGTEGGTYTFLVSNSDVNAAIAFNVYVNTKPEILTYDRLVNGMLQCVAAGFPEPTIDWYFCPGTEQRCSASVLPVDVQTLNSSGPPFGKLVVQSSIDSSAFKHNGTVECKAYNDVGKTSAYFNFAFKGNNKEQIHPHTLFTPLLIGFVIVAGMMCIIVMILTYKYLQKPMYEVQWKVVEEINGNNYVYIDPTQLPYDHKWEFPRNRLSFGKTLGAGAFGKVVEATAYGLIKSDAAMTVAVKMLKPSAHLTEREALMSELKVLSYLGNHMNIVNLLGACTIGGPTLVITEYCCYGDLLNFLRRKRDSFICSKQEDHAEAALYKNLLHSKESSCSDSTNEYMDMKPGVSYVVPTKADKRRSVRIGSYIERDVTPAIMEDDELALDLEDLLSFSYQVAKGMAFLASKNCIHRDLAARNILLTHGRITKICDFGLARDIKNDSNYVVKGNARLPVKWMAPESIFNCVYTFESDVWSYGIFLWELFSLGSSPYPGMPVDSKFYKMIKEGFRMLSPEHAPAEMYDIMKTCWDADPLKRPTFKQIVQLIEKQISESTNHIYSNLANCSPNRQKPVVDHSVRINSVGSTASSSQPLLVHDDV
T1 sequence (P05532 25-979): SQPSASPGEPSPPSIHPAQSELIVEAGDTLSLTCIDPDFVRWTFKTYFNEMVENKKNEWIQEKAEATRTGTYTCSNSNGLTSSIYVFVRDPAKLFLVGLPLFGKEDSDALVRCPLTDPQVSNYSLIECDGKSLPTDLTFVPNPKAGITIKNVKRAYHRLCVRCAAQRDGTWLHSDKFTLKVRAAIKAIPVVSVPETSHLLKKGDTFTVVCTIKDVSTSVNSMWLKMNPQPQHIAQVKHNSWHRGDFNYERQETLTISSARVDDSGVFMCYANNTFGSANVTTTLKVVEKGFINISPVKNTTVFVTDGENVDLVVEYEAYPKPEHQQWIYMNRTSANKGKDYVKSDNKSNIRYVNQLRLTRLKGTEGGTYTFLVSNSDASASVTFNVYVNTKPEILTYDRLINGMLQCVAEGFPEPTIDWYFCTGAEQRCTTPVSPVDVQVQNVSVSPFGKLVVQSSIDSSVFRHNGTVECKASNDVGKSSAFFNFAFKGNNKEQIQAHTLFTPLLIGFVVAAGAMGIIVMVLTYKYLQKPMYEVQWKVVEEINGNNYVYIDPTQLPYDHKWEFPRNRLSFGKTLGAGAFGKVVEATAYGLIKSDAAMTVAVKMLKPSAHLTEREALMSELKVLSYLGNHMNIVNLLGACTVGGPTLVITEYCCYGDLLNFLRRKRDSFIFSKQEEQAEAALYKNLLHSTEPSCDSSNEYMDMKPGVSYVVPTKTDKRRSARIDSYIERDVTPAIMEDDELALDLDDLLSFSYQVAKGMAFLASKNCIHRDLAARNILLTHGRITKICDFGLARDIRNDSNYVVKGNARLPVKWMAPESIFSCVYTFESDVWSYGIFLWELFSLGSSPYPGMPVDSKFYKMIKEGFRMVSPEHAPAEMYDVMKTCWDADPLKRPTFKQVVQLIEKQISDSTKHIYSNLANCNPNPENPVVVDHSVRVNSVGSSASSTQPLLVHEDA

B1: anti-human c-Kit monoclonal antibody CK6 (antibody, human IgG1, kappa, V domains shown)
VH: QVQLVQSGAAVKKPGESLKISCKGSGYRFTSYWIGWVRQMPGKGLEWMGIIYPGDSDTRYSPSFQGQVTISAGKSISTAYLQWSSLKASDTAMYYCARHGRGYNGYEGAFDIWGQGTMVTVSS
VL: AIQLTQSPSSLSASVGDRVTITCRASQGISSALAWYQQKPGKAPKLLIYDASSLESGVPSRFSGSGSGTDFTLTISSLQPEDFATYYCQQFNSYPLTFGGGTKVEIKR
notes: also called mAb CK6; anti-c-Kit mAb CK6
Question: Which results are given for B1?
Answer: IC50 of inhibition of c-Kit and MAPK phosphorylation in response to SCF in Mo7e ('Mole') leukemia cells, western blot [1]: 0.3 nM; binding result [2]: no binding (tested: 1.0 µg/ml); binding result [3]: no binding; EC50 [4]: 0.057 nM; Kd [5]: 0.066 nM; EC50 [6]: ~0.03 nM; IC50 [7]: ~0.04 nM
